This note sets out measurements from the supplement of paper PMC10567573.

The chains are these.
B1: SNAP91 (parent)
chain: FSTDAFSSPPQGASPVPESSLTAD
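Note: lentivirally expressed fusions sorted by FACS into six bins by GFP to DsRed ratio, PSI derived from sequencing read proportions per bin multiplied by bin number.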

In this data set the parent is B1. Nature of the data set: protein stability index of a GFP-peptide fusion (GPS, HEK-293T) (PSI 1-6); higher = more stable. The note with it: c terminus: a fixed tail appended.
For the variant FSTDAFSSPPQGASPVEESSLTAD [P17E], the protein stability index turned out to be 3.89.

On to FSTDAFSSPPQGASPVMESSLTAD [P17M], for which the protein stability index amounted to 3.13.

Regarding FSTDAFSSPPQGASPVIESSLTAD [P17I], the protein stability index came to 3.04.

As for FSTDAFSSPPQGASPVAESSLTAD [P17A], the protein stability index is 3.79.

For the variant FSTDAFSSPPQGASPVSESSLTAD [P17S], the protein stability index is 3.86.

As for FSTDAFSSPPQGASPVFESSLTAD [P17F], the protein stability index turned out to be 2.86.

Consider FSTDAFSSPPQGASPVYESSLTAD [P17Y], for which the protein stability index was 2.69.

As to FSTDAFSSPPQGASPVLESSLTAD [P17L], the protein stability index is 3.23.

On to FSTDAFSSPPQGASPVGESSLTAD [P17G], for which the protein stability index turned out to be 3.66.

With FSTDAFSSPPQGASPVHESSLTAD [P17H], the protein stability index came to 3.85.

As for FSTDAFSSPPQGASPVDESSLTAD [P17D], the protein stability index amounted to 4.14.

As for FSTDAFSSPPQGASPVVESSLTAD [P17V], the protein stability index amounted to 3.25.

In the case of FSTDAFSSPPQGASPVKESSLTAD [P17K], the protein stability index was found to be 2.9.

As to FSTDAFSSPPQGASPVRESSLTAD [P17R], the protein stability index was 3.31.

Consider FSTDAFSSPPQGASPVNESSLTAD [P17N], for which the protein stability index was determined as 3.52.

Turning to FSTDAFSSPPQGASPVQESSLTAD [P17Q], the protein stability index was determined as 3.21.

Consider FSTDAFSSPPQGASPVWESSLTAD [P17W], for which the protein stability index is 2.41.

On to FSTDAFSSPPQGASPVTESSLTAD [P17T], for which the protein stability index stood at 2.83.

FSTDAFSSPPQGASPVCESSLTAD [P17C]: the protein stability index worked out at 3.01.

For FSTDAFSSPPQGASPVPQSSLTAD [E18Q], the protein stability index is 3.12.

For the variant FSTDAFSSPPQGASPVPPSSLTAD [E18P], the protein stability index stood at 2.78.

For the variant FSTDAFSSPPQGASPVPWSSLTAD [E18W], the protein stability index amounted to 2.26.

With FSTDAFSSPPQGASPVPDSSLTAD [E18D], the protein stability index was found to be 3.15.

As to FSTDAFSSPPQGASPVPISSLTAD [E18I], the protein stability index came out at 2.63.

As for FSTDAFSSPPQGASPVPLSSLTAD [E18L], the protein stability index came out at 2.42.

FSTDAFSSPPQGASPVPSSSLTAD [E18S]: the protein stability index turned out to be 3.19.

Turning to FSTDAFSSPPQGASPVPKSSLTAD [E18K], the protein stability index came to 2.51.

For FSTDAFSSPPQGASPVPTSSLTAD [E18T], the protein stability index was determined as 2.81.

FSTDAFSSPPQGASPVPFSSLTAD [E18F]: the protein stability index is 2.45.

With FSTDAFSSPPQGASPVPASSLTAD [E18A], the protein stability index was 3.22.

Take FSTDAFSSPPQGASPVPMSSLTAD [E18M]: the protein stability index was 2.83.

Turning to FSTDAFSSPPQGASPVPYSSLTAD [E18Y], the protein stability index is 2.74.

As for FSTDAFSSPPQGASPVPGSSLTAD [E18G], the protein stability index is 3.05.

In the case of FSTDAFSSPPQGASPVPVSSLTAD [E18V], the protein stability index came to 3.05.

On to FSTDAFSSPPQGASPVPNSSLTAD [E18N], for which the protein stability index was determined as 2.61.

As for FSTDAFSSPPQGASPVPCSSLTAD [E18C], the protein stability index is 2.43.

Take FSTDAFSSPPQGASPVPRSSLTAD [E18R]: the protein stability index is 2.65.

FSTDAFSSPPQGASPVPHSSLTAD [E18H]: the protein stability index turned out to be 2.69.

For FSTDAFSSPPQGASPVPETSLTAD [S19T], the protein stability index came out at 3.54.

With FSTDAFSSPPQGASPVPEFSLTAD [S19F], the protein stability index was 2.58.

As for FSTDAFSSPPQGASPVPEESLTAD [S19E], the protein stability index amounted to 3.19.

As to FSTDAFSSPPQGASPVPEWSLTAD [S19W], the protein stability index was 2.76.

Turning to FSTDAFSSPPQGASPVPEGSLTAD [S19G], the protein stability index was found to be 2.46.

Take FSTDAFSSPPQGASPVPEASLTAD [S19A]: the protein stability index stood at 3.08.

With FSTDAFSSPPQGASPVPEISLTAD [S19I], the protein stability index was found to be 2.91.

On to FSTDAFSSPPQGASPVPECSLTAD [S19C], for which the protein stability index came out at 3.19.

Consider FSTDAFSSPPQGASPVPERSLTAD [S19R], for which the protein stability index was determined as 2.55.

In the case of FSTDAFSSPPQGASPVPEHSLTAD [S19H], the protein stability index came out at 3.13.

For FSTDAFSSPPQGASPVPELSLTAD [S19L], the protein stability index worked out at 2.79.

For FSTDAFSSPPQGASPVPENSLTAD [S19N], the protein stability index worked out at 3.44.

With FSTDAFSSPPQGASPVPEPSLTAD [S19P], the protein stability index stood at 3.09.

On to FSTDAFSSPPQGASPVPEKSLTAD [S19K], for which the protein stability index turned out to be 2.23.

Regarding FSTDAFSSPPQGASPVPEMSLTAD [S19M], the protein stability index came out at 2.66.

Consider FSTDAFSSPPQGASPVPEQSLTAD [S19Q], for which the protein stability index is 3.1.

On to FSTDAFSSPPQGASPVPEVSLTAD [S19V], for which the protein stability index turned out to be 2.85.

In the case of FSTDAFSSPPQGASPVPEDSLTAD [S19D], the protein stability index stood at 3.6.

For FSTDAFSSPPQGASPVPEYSLTAD [S19Y], the protein stability index came out at 3.25.

For FSTDAFSSPPQGASPVPESLLTAD [S20L], the protein stability index is 2.72.

On to FSTDAFSSPPQGASPVPESGLTAD [S20G], for which the protein stability index was found to be 3.04.

As to FSTDAFSSPPQGASPVPESDLTAD [S20D], the protein stability index is 3.48.

With FSTDAFSSPPQGASPVPESTLTAD [S20T], the protein stability index is 3.47.

FSTDAFSSPPQGASPVPESHLTAD [S20H]: the protein stability index came to 3.04.

Take FSTDAFSSPPQGASPVPESNLTAD [S20N]: the protein stability index was determined as 3.38.

On to FSTDAFSSPPQGASPVPESILTAD [S20I], for which the protein stability index worked out at 2.81.

Take FSTDAFSSPPQGASPVPESRLTAD [S20R]: the protein stability index amounted to 3.13.

On to FSTDAFSSPPQGASPVPESKLTAD [S20K], for which the protein stability index amounted to 3.09.

Consider FSTDAFSSPPQGASPVPESCLTAD [S20C], for which the protein stability index came to 3.18.

Consider FSTDAFSSPPQGASPVPESELTAD [S20E], for which the protein stability index was found to be 3.49.

As to FSTDAFSSPPQGASPVPESPLTAD [S20P], the protein stability index came to 2.46.

Consider FSTDAFSSPPQGASPVPESWLTAD [S20W], for which the protein stability index came to 2.52.

Turning to FSTDAFSSPPQGASPVPESQLTAD [S20Q], the protein stability index amounted to 3.04.

Consider FSTDAFSSPPQGASPVPESFLTAD [S20F], for which the protein stability index stood at 2.68.

Take FSTDAFSSPPQGASPVPESMLTAD [S20M]: the protein stability index was found to be 2.98.

For the variant FSTDAFSSPPQGASPVPESALTAD [S20A], the protein stability index was 3.56.

Take FSTDAFSSPPQGASPVPESVLTAD [S20V]: the protein stability index is 2.77.

For the variant FSTDAFSSPPQGASPVPESYLTAD [S20Y], the protein stability index is 2.93.

Consider FSTDAFSSPPQGASPVPESSATAD [L21A], for which the protein stability index was 3.44.

On to FSTDAFSSPPQGASPVPESSGTAD [L21G], for which the protein stability index was found to be 3.14.

As to FSTDAFSSPPQGASPVPESSCTAD [L21C], the protein stability index turned out to be 3.38.

As to FSTDAFSSPPQGASPVPESSETAD [L21E], the protein stability index turned out to be 4.1.

With FSTDAFSSPPQGASPVPESSDTAD [L21D], the protein stability index came out at 3.86.

For the variant FSTDAFSSPPQGASPVPESSFTAD [L21F], the protein stability index came to 3.1.

With FSTDAFSSPPQGASPNPESSLTAD [V16N], the protein stability index worked out at 3.31.

As to FSTDAFSSPPQGASPQPESSLTAD [V16Q], the protein stability index was determined as 3.33.

On to FSTDAFSSPPQGASPLPESSLTAD [V16L], for which the protein stability index was 2.83.

For the variant FSTDAFSSPPQGASPHPESSLTAD [V16H], the protein stability index turned out to be 3.17.

In the case of FSTDAFSSPPQGASPMPESSLTAD [V16M], the protein stability index worked out at 2.68.

For FSTDAFSSPPQGASPTPESSLTAD [V16T], the protein stability index stood at 2.96.

For the variant FSTDAFSSPPQGASPKPESSLTAD [V16K], the protein stability index amounted to 2.96.

As for FSTDAFSSPPQGASPIPESSLTAD [V16I], the protein stability index was 3.29.

On to FSTDAFSSPPQGASPYPESSLTAD [V16Y], for which the protein stability index was found to be 2.96.

Take FSTDAFSSPPQGASPSPESSLTAD [V16S]: the protein stability index stood at 2.96.

For FSTDAFSSPPQGASPRPESSLTAD [V16R], the protein stability index came to 3.22.

FSTDAFSSPPQGASPWPESSLTAD [V16W]: the protein stability index was found to be 2.21.
